# Experimental data from IntAct's records for PubMed 31515488.
# B1: Transcription factor 12 (Homo sapiens), Q99081 (parent)
# chain: MNPQQQRMAAIGTDKELSDLLDFSAMFSPPVNSGKTRPTTLGSSQFSGSGIDERGGTTSWGTSGQPSPSYDSSRGFTDSPHYSDHLNDSRLGAHEGLSPTPFMNSNLMGKTSERGSFSLYSRDTGLPGCQSSLLRQDLGLGSPAQLSSSGKPGTAYYSFSATSSRRRPLHDSAALDPLQAKKVRKVPPGLPSSVYAPSPNSDDFNRESPSYPSPKPPTSMFASTFFMQDGTHNSSDLWSSSNGMSQPGFGGILGTSTSHMSQSSSYGNLHSHDRLSYPPHSVSPTDINTSLPPMSSFHRGSTSSSPYVAASHTPPINGSDSILGTRGNAAGSSQTGDALGKALASIYSPDHTSSSFPSNPSTPVGSPSPLTGTSQWPRPGGQAPSSPSYENSLHSLQSRMEDRLDRLDDAIHVLRNHAVGPSTSLPAGHSDIHSLLGPSHNAPIGSLNSNYGGSSLVASSRSASMVGTHREDSVSLNGNHSVLSSTVTTSSTDLNHKTQENYRGGLQSQSGTVVTTEIKTENKEKDENLHEPPSSDDMKSDDESSQKDIKVSSRGRTSSTNEDEDLNPEQKIEREKERRMANNARERLRVRDINEAFKELGRMCQLHLKSEKPQTKLLILHQAVAVILSLEQQVRERNLNPKAACLKRREEEKVSAVSAEPPTTLPGTHPGLSETTNPMGHM
# B2: Low-density lipoprotein receptor class A domain-containing protein 1 (Homo sapiens), Q5T700 (parent)
# chain: MNKVFPQGENGYTAAESKAHPGGEAGGGHLCCSRRGACLSASLLLLLATVAALIALVTILGLPSCTPGAQACITLTNRTGFLCHDQRSCIPASGVCDGVRTCTHGEDEDESLCRDVPQSLPHFLVAHCGDPASWIYSDQKCDGTNNCGDCSDELSPVTVCPPCGPGWWRCPSTFFKYCDCIPRHLCRDHVQHCSDWSDEYACPGP
# partner: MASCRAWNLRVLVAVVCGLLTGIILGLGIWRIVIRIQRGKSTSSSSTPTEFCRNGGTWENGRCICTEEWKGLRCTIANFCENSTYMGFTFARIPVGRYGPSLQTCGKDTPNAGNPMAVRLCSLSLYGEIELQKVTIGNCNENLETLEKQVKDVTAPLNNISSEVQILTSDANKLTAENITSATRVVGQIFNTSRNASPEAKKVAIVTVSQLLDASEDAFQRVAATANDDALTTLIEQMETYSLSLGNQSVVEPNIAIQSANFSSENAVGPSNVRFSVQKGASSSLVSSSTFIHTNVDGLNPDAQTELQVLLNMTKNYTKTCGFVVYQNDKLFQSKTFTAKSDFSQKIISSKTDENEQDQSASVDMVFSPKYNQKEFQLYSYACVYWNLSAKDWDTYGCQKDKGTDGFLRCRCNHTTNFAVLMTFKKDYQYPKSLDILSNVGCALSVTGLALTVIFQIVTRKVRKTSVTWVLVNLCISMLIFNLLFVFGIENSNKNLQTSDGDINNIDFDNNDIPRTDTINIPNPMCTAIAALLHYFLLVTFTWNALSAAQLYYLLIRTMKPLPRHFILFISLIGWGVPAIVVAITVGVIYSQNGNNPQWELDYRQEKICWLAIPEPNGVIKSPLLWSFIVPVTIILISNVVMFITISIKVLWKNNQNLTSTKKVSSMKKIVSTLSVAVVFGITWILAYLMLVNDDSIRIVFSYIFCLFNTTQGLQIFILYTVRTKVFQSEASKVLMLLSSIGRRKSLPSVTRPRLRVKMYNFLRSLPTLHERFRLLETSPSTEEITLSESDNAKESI
# B3: Nuclear autoantigen Sp-100 (Homo sapiens), P23497 (parent)
# chain: MAGGGGDLSTRRLNECISPVANEMNHLPAHSHDLQRMFTEDQGVDDRLLYDIVFKHFKRNKVEISNAIKKTFPFLEGLRDRDLITNKMFEDSQDSCRNLVPVQRVVYNVLSELEKTFNLPVLEALFSDVNMQEYPDLIHIYKGFENVIHDKLPLQESEEEEREERSGLQLSLEQGTGENSFRSLTWPPSGSPSHAGTTPPENGLSEHPCETEQINAKRKDTTSDKDDSLGSQQTNEQCAQKAEPTESCEQIAVQVNNGDAGREMPCPLPCDEESPEAELHNHGIQINSCSVRLVDIKKEKPFSNSKVECQAQARTHHNQASDIIVISSEDSEGSTDVDEPLEVFISAPRSEPVINNDNPLESNDEKEGQEATCSRPQIVPEPMDFRKLSTFRESFKKRVIGQDHDFSESSEEEAPAEASSGALRSKHGEKAPMTSRSTSTWRIPSRKRRFSSSDFSDLSNGEELQETCSSSLRRGSGSQPQEPENKKCSCVMCFPKGVPRSQEARTESSQASDMMDTMDVENNSTLEKHSGKRRKKRRHRSKVNGLQRGRKKDRPRKHLTLNNKVQKKRWQQRGRKANTRPLKRRRKRGPRIPKDENINFKQSELPVTCGEVKGTLYKERFKQGTSKKCIQSEDKKWFTPREFEIEGDRGASKNWKLSIRCGGYTLKVLMENKFLPEPPSTRKKRILESHNNTLVDPCEEHKKKNPDASVKFSEFLKKCSETWKTIFAKEKGKFEDMAKADKAHYEREMKTYIPPKGEKKKKFKDPNAPKRPPLAFFLFCSEYRPKIKGEHPGLSIDDVVKKLAGMWNNTAAADKQFYEKKAAKLKEKYKKDIAAYRAKGKPNSAKKRVVKAEKSKKKKEEEEDEEDEQEEENEEDDDK
# partner: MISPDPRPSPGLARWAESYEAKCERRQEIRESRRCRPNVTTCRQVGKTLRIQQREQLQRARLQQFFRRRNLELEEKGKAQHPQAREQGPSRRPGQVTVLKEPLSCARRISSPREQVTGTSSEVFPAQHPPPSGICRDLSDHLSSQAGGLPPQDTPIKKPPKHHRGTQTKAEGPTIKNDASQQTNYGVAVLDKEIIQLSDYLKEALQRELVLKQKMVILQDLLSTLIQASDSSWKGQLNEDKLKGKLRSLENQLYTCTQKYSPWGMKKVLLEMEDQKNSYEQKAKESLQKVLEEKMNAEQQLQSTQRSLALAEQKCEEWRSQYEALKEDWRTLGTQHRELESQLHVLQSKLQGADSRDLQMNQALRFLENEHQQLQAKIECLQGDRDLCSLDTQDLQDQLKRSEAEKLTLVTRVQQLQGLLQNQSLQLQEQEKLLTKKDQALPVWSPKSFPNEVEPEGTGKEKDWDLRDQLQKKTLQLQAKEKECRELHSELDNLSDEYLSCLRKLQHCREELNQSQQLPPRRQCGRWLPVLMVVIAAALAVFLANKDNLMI
# B4: Vesicle transport through interaction with t-SNAREs homolog 1B (Homo sapiens), Q9UEU0 (parent)
# chain: MASSAASSEHFEKLHEIFRGLHEDLQGVPERLLGTAGTEEKKKLIRDFDEKQQEANETLAEMEEELRYAPLSFRNPMMSKLRNYRKDLAKLHREVRSTPLTATPGGRGDMKYGIYAVENEHMNRLQSQRAMLLQGTESLNRATQSIERSHRIATETDQIGSEIIEELGEQRDQLERTKSRLVNTSENLSKSRKILRSMSRKVTTNKLLLSIIILLELAILGGLVYYKFFRSH
# partner: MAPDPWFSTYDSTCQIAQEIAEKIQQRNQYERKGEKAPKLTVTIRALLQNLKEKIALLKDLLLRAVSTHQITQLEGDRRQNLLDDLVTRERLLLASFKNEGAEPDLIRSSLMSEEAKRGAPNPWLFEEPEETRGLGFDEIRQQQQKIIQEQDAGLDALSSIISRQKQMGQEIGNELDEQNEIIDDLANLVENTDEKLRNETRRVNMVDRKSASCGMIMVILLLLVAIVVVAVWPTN
# B5: Ropporin-1A (Homo sapiens), Q9HAT0 (parent)
# chain: MAQTDKPTCIPPELPKMLKEFAKAAIRVQPQDLIQWAADYFEALSRGETPPVRERSERVALCNRAELTPELLKILHSQVAGRLIIRAEELAQMWKVVNLPTDLFNSVMNVGRFTEEIEWLKFLALACSALGVTITKTLKIVCEVLSCDHNGGSPRIPFSTFQFLYTYIAKVDGEISASHVSRMLNYMEQEVIGPDGIITVNDFTQNPRVQLE
# Variants of: B1
# Conditions: with psa1_human PSMA1, P25786
# psa1_human PSMA1, P25786, sequence (P25786 whole entry): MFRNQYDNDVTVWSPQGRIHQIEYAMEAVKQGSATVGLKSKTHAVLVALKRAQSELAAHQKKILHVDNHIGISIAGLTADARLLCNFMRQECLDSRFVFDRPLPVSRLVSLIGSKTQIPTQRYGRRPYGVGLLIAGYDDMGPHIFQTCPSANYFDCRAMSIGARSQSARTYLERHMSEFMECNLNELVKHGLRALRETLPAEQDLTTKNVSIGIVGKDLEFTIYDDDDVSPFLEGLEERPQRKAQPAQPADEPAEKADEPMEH
row,effect of a mutation on the interaction,Variant
1,with no effect,L483R
2,with no effect,N479S

# Variants of: B1
# Conditions: with cdn2c_human CDKN2C
row,effect of a mutation on the interaction,Variant
1,with no effect,L483R
2,with no effect,N479S

# Variants of: B2
# Conditions: with agrg7_human ADGRG7, Q96K78
row,effect of a mutation on the interaction,Variant
1,with no effect,E108K

# Variants of: B3
# Conditions: with TRAF3IP3, Q9Y228
row,effect of a mutation on the interaction,Variant
1,with no effect,M433V

# Variants of: B4
# Conditions: with stx8_human STX8, Q9UNK0
row,effect of a mutation on the interaction,Variant
1,with no effect,R176H
2,with no effect,R124Q

# Variants of: B5
# Conditions: with lnx1_human LNX1, Q8TBB1
# lnx1_human LNX1, Q8TBB1, sequence (Q8TBB1 whole entry): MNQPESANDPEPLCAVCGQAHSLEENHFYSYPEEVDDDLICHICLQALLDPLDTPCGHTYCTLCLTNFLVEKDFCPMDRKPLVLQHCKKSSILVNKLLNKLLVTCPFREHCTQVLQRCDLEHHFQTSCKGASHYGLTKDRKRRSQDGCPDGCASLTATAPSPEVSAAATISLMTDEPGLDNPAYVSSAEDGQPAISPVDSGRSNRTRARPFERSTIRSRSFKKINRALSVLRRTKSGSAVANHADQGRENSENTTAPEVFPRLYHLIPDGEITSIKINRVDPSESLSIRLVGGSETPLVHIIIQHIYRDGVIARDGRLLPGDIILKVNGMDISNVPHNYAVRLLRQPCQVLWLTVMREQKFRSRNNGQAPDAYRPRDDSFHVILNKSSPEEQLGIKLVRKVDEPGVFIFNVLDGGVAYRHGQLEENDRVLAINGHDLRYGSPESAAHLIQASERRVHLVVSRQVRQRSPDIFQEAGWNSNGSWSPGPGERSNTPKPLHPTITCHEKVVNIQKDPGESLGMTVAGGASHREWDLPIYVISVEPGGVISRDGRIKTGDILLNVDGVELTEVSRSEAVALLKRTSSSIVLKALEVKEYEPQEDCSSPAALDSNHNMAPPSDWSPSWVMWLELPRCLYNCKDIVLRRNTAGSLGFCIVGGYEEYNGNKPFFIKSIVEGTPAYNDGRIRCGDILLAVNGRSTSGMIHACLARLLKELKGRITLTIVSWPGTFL
row,effect of a mutation on the interaction,Variant
1,with no effect,C62W

# Variants of: B5
# Conditions: with hnrl1_human HNRNPUL1, Q9BUJ2
# hnrl1_human HNRNPUL1, Q9BUJ2, sequence (Q9BUJ2 whole entry): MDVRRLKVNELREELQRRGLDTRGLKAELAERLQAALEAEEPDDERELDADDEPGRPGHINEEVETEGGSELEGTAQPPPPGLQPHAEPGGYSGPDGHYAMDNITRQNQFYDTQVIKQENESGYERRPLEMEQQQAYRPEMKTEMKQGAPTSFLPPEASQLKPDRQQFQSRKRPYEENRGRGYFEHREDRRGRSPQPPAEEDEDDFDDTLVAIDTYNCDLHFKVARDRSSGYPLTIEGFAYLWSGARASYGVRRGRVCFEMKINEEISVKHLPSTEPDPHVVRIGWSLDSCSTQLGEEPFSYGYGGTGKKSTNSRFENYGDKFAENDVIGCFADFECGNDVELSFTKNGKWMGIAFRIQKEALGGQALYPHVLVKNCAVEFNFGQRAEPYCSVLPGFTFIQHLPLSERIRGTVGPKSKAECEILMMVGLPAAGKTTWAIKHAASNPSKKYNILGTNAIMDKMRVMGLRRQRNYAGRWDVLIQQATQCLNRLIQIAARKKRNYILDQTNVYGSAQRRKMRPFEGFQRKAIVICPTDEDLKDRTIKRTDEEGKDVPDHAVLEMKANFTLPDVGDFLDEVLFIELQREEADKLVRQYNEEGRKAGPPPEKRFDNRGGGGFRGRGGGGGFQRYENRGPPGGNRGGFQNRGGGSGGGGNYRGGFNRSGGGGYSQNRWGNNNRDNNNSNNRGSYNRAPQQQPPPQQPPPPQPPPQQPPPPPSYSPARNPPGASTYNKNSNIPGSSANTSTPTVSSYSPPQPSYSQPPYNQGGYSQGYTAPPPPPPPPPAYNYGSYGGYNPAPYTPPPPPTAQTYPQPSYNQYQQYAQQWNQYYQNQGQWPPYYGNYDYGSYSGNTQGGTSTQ
row,effect of a mutation on the interaction,Variant
1,with no effect,C62W

# Variants of: B5
# Conditions: with aapk1_human PRKAA1, Q13131
# aapk1_human PRKAA1, Q13131, sequence (Q13131 whole entry, looked up): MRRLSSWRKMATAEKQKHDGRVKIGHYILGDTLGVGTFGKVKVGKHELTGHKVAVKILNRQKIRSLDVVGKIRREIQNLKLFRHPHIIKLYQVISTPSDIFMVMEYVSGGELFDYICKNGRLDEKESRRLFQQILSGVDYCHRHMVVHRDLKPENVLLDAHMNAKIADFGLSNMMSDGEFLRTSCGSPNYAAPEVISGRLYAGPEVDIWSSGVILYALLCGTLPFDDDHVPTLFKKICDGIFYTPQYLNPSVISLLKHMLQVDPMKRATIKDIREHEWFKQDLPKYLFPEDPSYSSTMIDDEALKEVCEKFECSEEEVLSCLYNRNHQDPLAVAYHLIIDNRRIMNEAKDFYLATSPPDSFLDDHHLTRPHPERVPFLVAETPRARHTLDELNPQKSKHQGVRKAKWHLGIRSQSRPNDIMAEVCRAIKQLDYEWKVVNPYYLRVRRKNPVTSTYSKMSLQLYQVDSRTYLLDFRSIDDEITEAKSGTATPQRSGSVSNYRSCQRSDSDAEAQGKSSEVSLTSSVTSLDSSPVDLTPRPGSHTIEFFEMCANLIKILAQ
row,effect of a mutation on the interaction,Variant
1,with no effect,C62W
